{
  "source": "paper PMC3985186",
  "about": "“The influence of dynein processivity control, MAPs, and microtubule ends on directional movement of a localising mRNA” (eLife, 2014)",
  "key": {"[1]": {"target": "the molecule itself", "test": "stepwise photobleaching (TIR microscopy); dilute solution (1 pM) of kin401T99N:mGFP added to imaging chambers with HiLyte 647-labelled microtubules bound to the glass, no ATP, oxygen scavenging agent"}, "[2]": {"target": "the molecule itself", "test": "SEC; gel filtration of purified kin401T99N:mGFP before concentration"}},
  "data": [
    {"protein": "GFP-labelled Drosophila kinesin-1 (aa 1-401) rigor mutant, Kin401T99N:mGFP (domain or fragment, The construct without the mutation was a gift from T Surrey; also called rigor kinesin; GFP-labelled rigor kinesin; source: bacteria (BL21(DE3) strain), dimeric fraction purified using gel filtration; not shown: monomeric GFP, C-terminal, kept) not shown", "values": [
      {"measurement": "stoichiometry N", "setting": "[1]", "value": "≤ 2"},
      {"measurement": "stoichiometry N", "setting": "[2]", "value": 2}
    ]}
  ]
}
